Reference: publication PMC4690014, “Functional Analysis of Cotton Leaf Curl Kokhran Virus/Cotton Leaf Curl Multan Betasatellite RNA Silencing Suppressors”

Assays:
TrAP (Trx-His fusion) = TrAP (Trx-His fusion) (Cotton leaf curl Kokhran virus, UniProt O72711 1-134); assay: EMSA; conditions: protein: recombinant; tags: N-terminal Trx-His (pET32a); label: 5'-32P
V2 (Trx-His fusion) = V2 (Trx-His fusion) (Cotton leaf curl Kokhran virus, UniProt Q6JIB8 1-118); assay: EMSA; conditions: protein: recombinant; tags: N-terminal Trx-His (pET32a); label: 5'-32P

AGAGTGCCATGCCCGAAGGTT (ssDNA) [21 nt ssDNA]: binds (TrAP (Trx-His fusion)).

AGAGUGCCAUGCCCGAAGGUU (ssRNA) [21 nt ssRNA]: binds (TrAP (Trx-His fusion)).

B1: 69 nt ssDNA (SalI-XbaI-HA-Tag oligo, by length) (ssDNA)
DNA: GCGTCGACGTCTTGCTCTAGAGATGTATCCATATGATGTTCCGGATTACGCGGAACGAGCTATACAAGG
B1: binds (TrAP (Trx-His fusion)); binds (V2 (Trx-His fusion)).

AGAGUGCCAUGCCCGAAGGUUAUU (ssRNA) [24 nt ssRNA]: binds (TrAP (Trx-His fusion)).
